Experiments:
[1] = target: DosR K182Q K182Q (Mycobacterium tuberculosis H37Rv) (UniProt P9WMF9); assay: EMSA
[2] = target: DosR K182R K182R (Mycobacterium tuberculosis H37Rv) (UniProt P9WMF9); assay: EMSA

TTGATGCCTCCTAATCGATGGAAACGGATGCCTTTGATCCGACCAGCCCATCGTGGCCAGGGCTAGGGACAGAAGTCCCCGAAGCGCGGGCCATTTGTCCGCGCCCGTCGGTGATCCACTTGGGGACCATTGACCCTGTTGTCTGCCA (double strand) [acr promoter fragment]
binding [1]: binds more weakly
binding [2]: binds

Reference: article PMC5861037
